The target in data set [1] is T1, mjCgi121 (Methanocaldococcus jannaschii, UniProt Q57646 1-145).
T1 sequence: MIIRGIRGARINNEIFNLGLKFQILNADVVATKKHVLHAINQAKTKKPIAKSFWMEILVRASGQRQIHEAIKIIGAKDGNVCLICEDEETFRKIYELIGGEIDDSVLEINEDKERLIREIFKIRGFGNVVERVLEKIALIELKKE
The data set can be described thus: competition; displacement of 32P-tRNA, filter binding, 5 uM protein; 20 mM HEPES pH 7.5, 100 mM NaCl, 2 mM DTT; filter binding 50 nM 32P-tRNA, 1 h, room temperature; FP 50 nM 647-CCA; NMR 25 C with 10% D2O. Particulars: protein: recombinant; tags: GST removed by TEV; single strand.

A further data set deals with TPRKB (Homo sapiens, UniProt Q9Y3C4 1-175). Put plainly: fluorescence polarization; 20 mM HEPES pH 7.5, 100 mM NaCl, 2 mM DTT; filter binding 50 nM 32P-tRNA, 1 h, room temperature; FP 50 nM 647-CCA; NMR 25 C with 10% D2O. Particulars: protein: recombinant; tags: GST removed by TEV; label: 5' Alexa-647; single strand. (In general: Polarisation of emitted light reports the rotation of a fluorescent probe.)

Data set [2] deals with T1, mjCgi121. The data set is described as above. Particulars: protein: recombinant; tags: GST removed by TEV; label: 5' Alexa-647; single strand.
The target in a further data set is T2, mjKae1 (Methanocaldococcus jannaschii, UniProt Q58530 1-332).
T2 sequence: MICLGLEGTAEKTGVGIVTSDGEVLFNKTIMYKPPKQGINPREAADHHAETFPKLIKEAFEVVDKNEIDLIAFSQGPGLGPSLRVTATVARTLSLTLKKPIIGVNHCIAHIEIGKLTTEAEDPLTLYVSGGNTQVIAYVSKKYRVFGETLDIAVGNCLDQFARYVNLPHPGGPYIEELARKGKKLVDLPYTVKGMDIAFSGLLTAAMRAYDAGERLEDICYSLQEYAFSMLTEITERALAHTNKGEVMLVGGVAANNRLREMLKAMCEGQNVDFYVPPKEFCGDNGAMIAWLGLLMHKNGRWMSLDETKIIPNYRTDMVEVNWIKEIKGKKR
The description is as above. Particulars: protein: recombinant; tags: GST removed by TEV; label: 5' Alexa-647; single strand.

Another data set deals with T3, mjCgi121;mjBud32 (Methanocaldococcus …, UniProt Q57646;Q58530 1-145;333-535, |).
T3 sequence 1: T1 sequence
T3 sequence 2: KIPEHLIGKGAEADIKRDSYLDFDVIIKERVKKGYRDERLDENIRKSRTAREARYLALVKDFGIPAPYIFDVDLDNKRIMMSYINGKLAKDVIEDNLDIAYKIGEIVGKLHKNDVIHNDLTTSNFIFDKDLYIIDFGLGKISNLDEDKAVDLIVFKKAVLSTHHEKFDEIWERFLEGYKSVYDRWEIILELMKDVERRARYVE
Described as above. Particulars: protein: recombinant;recombinant; tags: GST removed by TEV;His6 removed by TEV; copies: 1;1; label: 5' Alexa-647; single strand.

Another data set addresses scQri7 (Saccharomyces cerevisiae, UniProt P43122 30-407). Described as above. Particulars: protein: recombinant; tags: His6 removed by TEV; label: 5' Alexa-647; single strand.
A further data set addresses TPRKB;PRPK (Homo sapiens;Homo sapiens, UniProt Q9Y3C4;Q96S44 1-175;1-253, |). The description is as above. Particulars: protein: recombinant;recombinant; tags: GST removed by TEV;GST-His6 removed by TEV; copies: 1;1; label: 5' Alexa-647; single strand.
A further data set addresses T4, mjCgi121;mjBud32;mjKae1 (Methanocaldococcus …, UniProt Q57646;Q58530;Q58530 1-145;333-535;1-332, ||).
T4 sequence 1: T1 sequence
T4 sequence 2: T3 sequence 2
T4 sequence 3: T2 sequence
Described as above. Particulars: protein: recombinant;recombinant;recombinant; tags: GST removed by TEV;His6 removed by TEV;GST removed by TEV; copies: 1;1;1; label: 5' Alexa-647; single strand.

The target of another data set is TPRKB;PRPK;OSGEP;LAGE3 (Homo sapiens;Homo sapiens;Homo …, UniProt Q9Y3C4;Q96S44;Q9NPF4;Q14657 1-175;1-253;1-335;1-143, |||). The description is as above. Particulars: protein: recombinant;recombinant;recombinant;recombinant; tags: GST removed by TEV;GST-His6 removed by TEV;;His; copies: 1;1;1;1; label: 5' Alexa-647; single strand.
The target in a further data set is T5, mjBud32 (Methanocaldococcus jannaschii, UniProt Q58530 333-535).
T5 sequence: T3 sequence 2
The data set is described as above. Particulars: protein: recombinant; tags: His6 removed by TEV; label: 5' Alexa-647; single strand.

This note sets out measurements from publication PMC7718258, “A substrate binding model for the KEOPS tRNA modifying complex”.

scQri7, sequence (P43122 30-407): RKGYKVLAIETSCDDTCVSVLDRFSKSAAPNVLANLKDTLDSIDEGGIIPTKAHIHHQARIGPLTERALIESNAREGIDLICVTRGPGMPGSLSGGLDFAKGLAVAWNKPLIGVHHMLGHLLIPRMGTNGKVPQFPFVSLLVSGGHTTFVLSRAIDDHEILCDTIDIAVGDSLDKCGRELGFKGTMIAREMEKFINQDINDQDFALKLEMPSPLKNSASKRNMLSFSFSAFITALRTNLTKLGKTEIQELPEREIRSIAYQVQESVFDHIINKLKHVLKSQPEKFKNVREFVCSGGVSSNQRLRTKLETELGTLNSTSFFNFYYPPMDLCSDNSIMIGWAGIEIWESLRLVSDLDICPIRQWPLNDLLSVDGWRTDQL

Consider CCCGCCA (ssRNA) [CCA-oligo], for which the binding result in the data set with mjCgi121 [1] was “binds”.

In the case of CCGCCA (ssRNA) [647-CCA], the Kd (commonly a measure of binding affinity in units of concentration) was determined as 28000 nM with TPRKB; 730 nM with mjCgi121 [2]; 229 nM with mjCgi121;mjBud32; 450 nM with TPRKB;PRPK; 153 nM with mjCgi121;mjBud32;mjKae1; 4300 nM in the data set with TPRKB;PRPK;OSGEP;LAGE3. The binding result with mjKae1, in the data set with scQri7 and in the data set with mjBud32 was “no binding” throughout.

On to ACCGCCC (ssRNA) [inverted oligo], for which the binding result with mjCgi121 [1] is on record as “no binding”.
